Assay results as given in doi:10.1101/2024.02.16.579611.

Target: E. coli RNA polymerase holoenzyme Eσ^70 (His10-PPX-RNAP with σ^70) (E. coli) (UniProt P0A7Z4)
Assay: native MS

## KorA (wild type), C-terminally His-tagged (from UniProt P03052) (natural protein)
  stoichiometry N: 2
